# Laboratory results: patent publication US20250002577A1 (ONCORESPONSE, published 2025)
# Where a chain is given by its changes, count along the chain named.
# B1: B21H1-15 (antibody, human IgG1, kappa)
# heavy: not shown
# light: DIQMTQTPSTVEASVGGTVTITCQASGNIYSFLAWYQQKPGQPPKLLIYTASNLETGVPSRFSGSGSGTEYTLTISGLQSDDAATYYCLGGLYSSDVSYAFGGGTEVVVKRTVAAPSVFIFPPSDEQLKSGTASVVCLLNNFYPREAKVQWKVDNALQSGNSQESVTEQDSKDSTYSLSSTLTLSKADYEKHKVYACEVTHQGLSSPVTKSFNRGEC
# notes: humanized IgG1/kappa, VH1+VL5
# B2: B21H1-23 (antibody, human IgG1, kappa)
# heavy: not shown
# light: DIVMTQSPSSVSASVGDRVTITCQASGNIYSFLAWYQQKPGKAPKLLIYTASNLETGVPSRFSGSGSGTDFTLTISSLQPEDFATYYCLGGLYSSDVSYAFGGGTKVVIKRTVAAPSVFIFPPSDEQLKSGTASVVCLLNNFYPREAKVQWKVDNALQSGNSQESVTEQDSKDSTYSLSSTLTLSKADYEKHKVYACEVTHQGLSSPVTKSFNRGEC
# notes: humanized IgG1/kappa, VH2+VL3
# B3: B21H1-13 (antibody, human IgG1, kappa)
# heavy: not shown
# light: B2 light
# notes: humanized IgG1/kappa, VH1+VL3
# B4: B21H1-42 (antibody, human IgG1, kappa)
# heavy: not shown
# light: B2 light with V3Q, V11L, A43V, F71Y, P80S, F83A
# notes: humanized IgG1/kappa, VH4+VL2
# B5: B21H1-22 (antibody, human IgG1, kappa)
# heavy: not shown
# light: B2 light with V3Q, V11L, A43V, F71Y, P80S, F83A
# notes: humanized IgG1/kappa, VH2+VL2
# Molecular target: T1, human LILRB1 on cells (human, UniProt Q8NHL6 24-650)
# T1 construct: whole, on cells; also called hLILRB1; LILRB1-expressing 721.221 cells
# T1 sequence (Q8NHL6 24-650): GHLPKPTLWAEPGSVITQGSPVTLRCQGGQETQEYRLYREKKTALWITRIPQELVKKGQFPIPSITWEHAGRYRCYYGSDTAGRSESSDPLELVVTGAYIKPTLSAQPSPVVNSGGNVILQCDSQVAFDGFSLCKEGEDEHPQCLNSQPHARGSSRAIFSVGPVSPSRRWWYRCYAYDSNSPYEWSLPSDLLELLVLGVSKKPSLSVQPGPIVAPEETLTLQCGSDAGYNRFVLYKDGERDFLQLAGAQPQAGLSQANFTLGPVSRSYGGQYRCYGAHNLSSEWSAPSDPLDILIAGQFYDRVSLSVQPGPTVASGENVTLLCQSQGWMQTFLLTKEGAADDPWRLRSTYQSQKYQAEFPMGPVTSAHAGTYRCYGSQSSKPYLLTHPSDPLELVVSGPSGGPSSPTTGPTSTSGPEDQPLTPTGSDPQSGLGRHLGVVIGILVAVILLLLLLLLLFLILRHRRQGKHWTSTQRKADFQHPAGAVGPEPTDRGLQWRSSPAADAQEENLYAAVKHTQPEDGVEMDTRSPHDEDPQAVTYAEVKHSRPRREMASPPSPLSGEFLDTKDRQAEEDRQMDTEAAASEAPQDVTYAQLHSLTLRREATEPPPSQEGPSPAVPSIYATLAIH
# Test: flow cytometry, HEK293-6E transfectants
# Method: (§1) To determine that the parent chimera anti LILRB2/1 antibody specifically binds to LILRB2 and LILRB1 and not to other LILRB and LILRA family members, a cross-reactivity assay was performed. Cross-reactivity was assessed by antibody binding to transiently transfected HEK293-6E cells by flow cytometry. Binding was evaluated to HEK293-6E cells transiently transfected with human LILRB-1, -2, -3, -4, and 5 plasmids (Origene, Nos. RC219949, RC217935, RC211228, RC220932, RC206516) or to cells transiently transfected with human LILRA-1, -2, -4, -5, and -6 plasmids (Origene, Nos. RC210808, RC205626, RC220452, RC212310 RC212965). […] At a concentration of 1 μg/mL, no binding of B21A1 or the humanized variants to LILRB-3, -4, or -5 was observed (Table 7). Additionally, no binding to LILRA-1, -2, -4, -5, or -6 was observed, confirming the specificity of B21A1 and its humanized variants to LILRB1 and LILRB2 (Table 8).
row,MFI [MFI],Binder
1,1140,B1
2,1060,B2
3,1000,B3
4,1160,B4
5,914,B5

# Molecular target: T2, human LILRB2 on cells (human, UniProt Q8N423 22-597)
# T2 construct: whole, on cells; also called hLILRB2; LILRB2-HEK293T
# T2 sequence (Q8N423 22-597): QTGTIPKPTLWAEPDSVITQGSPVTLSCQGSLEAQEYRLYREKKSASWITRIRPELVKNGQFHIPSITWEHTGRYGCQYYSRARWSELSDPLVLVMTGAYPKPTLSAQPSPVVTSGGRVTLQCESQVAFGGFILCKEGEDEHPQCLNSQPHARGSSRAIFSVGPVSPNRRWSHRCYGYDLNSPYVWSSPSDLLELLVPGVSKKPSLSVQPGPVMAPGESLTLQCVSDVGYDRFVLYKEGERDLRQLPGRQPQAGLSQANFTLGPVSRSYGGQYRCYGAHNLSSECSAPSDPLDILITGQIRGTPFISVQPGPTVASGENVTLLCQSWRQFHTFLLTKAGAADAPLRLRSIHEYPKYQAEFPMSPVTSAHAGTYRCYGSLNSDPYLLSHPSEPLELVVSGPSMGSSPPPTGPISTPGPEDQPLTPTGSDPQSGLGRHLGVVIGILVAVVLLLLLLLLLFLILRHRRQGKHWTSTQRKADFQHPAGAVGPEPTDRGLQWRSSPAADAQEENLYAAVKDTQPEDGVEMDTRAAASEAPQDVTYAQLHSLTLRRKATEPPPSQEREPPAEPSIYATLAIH
# Test: flow cytometry, HEK293-6E transfectants
# Method: as §1
row,MFI [MFI],Binder
1,5700,B1
2,5430,B2
3,5370,B3
4,5630,B4
5,5590,B5

# Molecular target: T3, human LILRB3 on HEK293-6E cells (human, UniProt O75022 24-631)
# T3 construct: whole, on cells; also called hLILRB3
# T3 sequence (O75022 24-631): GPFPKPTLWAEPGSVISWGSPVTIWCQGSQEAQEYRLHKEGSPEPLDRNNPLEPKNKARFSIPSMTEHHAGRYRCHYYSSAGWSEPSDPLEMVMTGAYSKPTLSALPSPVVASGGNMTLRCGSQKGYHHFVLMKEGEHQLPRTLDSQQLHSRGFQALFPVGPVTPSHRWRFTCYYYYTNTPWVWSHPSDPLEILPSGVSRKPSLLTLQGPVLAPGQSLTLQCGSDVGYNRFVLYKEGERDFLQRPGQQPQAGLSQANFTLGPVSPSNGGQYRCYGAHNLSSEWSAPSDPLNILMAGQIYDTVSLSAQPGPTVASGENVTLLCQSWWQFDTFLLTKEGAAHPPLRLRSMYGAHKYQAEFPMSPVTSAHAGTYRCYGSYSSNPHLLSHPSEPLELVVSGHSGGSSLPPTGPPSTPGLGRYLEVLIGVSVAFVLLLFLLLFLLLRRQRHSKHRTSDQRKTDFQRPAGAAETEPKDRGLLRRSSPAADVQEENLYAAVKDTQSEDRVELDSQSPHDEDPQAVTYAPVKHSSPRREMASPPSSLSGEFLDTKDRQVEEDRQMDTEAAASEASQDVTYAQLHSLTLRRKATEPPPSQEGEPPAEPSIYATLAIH
# Test: flow cytometry, HEK293-6E transfectants
# Method: as §1
MFI [MFI],binding result,Binder
98.7,no binding (tested: 1 µg/mL),B1
96.2,no binding (tested: 1 µg/mL),B2
84.7,no binding (tested: 1 µg/mL),B3
97,no binding (tested: 1 µg/mL),B4
90.1,no binding (tested: 1 µg/mL),B5

# Molecular target: T4, human LILRB4 on HEK293-6E cells (human, UniProt Q8NHJ6 22-448)
# T4 construct: whole, on cells; also called hLILRB4
# Test: flow cytometry, HEK293-6E transfectants
# Method: as §1
MFI [MFI],binding result,Binder
29.9,no binding (tested: 1 µg/mL),B1
30.1,no binding (tested: 1 µg/mL),B2
29.1,no binding (tested: 1 µg/mL),B3
30.9,no binding (tested: 1 µg/mL),B4
29.9,no binding (tested: 1 µg/mL),B5

# Molecular target: T5, human LILRB5 on HEK293-6E cells (human, UniProt O75023 24-590)
# T5 construct: whole, on cells; also called hLILRB5
# T5 sequence (O75023 24-590): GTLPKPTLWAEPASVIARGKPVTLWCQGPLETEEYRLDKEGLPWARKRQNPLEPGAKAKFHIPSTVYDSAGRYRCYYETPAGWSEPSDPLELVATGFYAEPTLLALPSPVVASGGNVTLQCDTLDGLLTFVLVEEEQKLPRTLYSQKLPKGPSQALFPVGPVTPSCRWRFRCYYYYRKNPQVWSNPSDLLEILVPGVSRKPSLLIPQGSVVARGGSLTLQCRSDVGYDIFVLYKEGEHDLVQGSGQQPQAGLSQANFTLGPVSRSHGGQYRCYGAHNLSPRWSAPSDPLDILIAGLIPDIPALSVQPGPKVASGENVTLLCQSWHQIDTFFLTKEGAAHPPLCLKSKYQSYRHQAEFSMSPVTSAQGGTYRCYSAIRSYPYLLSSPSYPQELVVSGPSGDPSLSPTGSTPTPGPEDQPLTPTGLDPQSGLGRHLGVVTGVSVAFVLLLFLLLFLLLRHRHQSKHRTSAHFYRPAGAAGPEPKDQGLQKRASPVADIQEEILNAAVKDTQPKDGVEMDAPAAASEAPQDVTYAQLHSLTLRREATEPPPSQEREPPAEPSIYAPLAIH
# Test: flow cytometry, HEK293-6E transfectants
# Method: as §1
MFI [MFI],binding result,Binder
93.8,no binding (tested: 1 µg/mL),B1
92,no binding (tested: 1 µg/mL),B2
89.8,no binding (tested: 1 µg/mL),B3
92.8,no binding (tested: 1 µg/mL),B4
91.4,no binding (tested: 1 µg/mL),B5

# Molecular target: T6, human LILRA1 on HEK293-6E cells (human, UniProt O75019 17-489)
# T6 construct: whole, on cells; also called hLILRA1
# Test: flow cytometry, HEK293-6E transfectants
# Method: as §1
MFI [MFI],binding result,Binder
290,no binding (tested: 1 µg/mL),B1
210,no binding (tested: 1 µg/mL),B2
201,no binding (tested: 1 µg/mL),B3
345,no binding (tested: 1 µg/mL),B4
295,no binding (tested: 1 µg/mL),B5

# Molecular target: T7, human LILRA2 on HEK293-6E cells (human, UniProt Q8N149 24-483)
# T7 construct: whole, on cells; also called hLILRA2
# T7 sequence (Q8N149 24-483): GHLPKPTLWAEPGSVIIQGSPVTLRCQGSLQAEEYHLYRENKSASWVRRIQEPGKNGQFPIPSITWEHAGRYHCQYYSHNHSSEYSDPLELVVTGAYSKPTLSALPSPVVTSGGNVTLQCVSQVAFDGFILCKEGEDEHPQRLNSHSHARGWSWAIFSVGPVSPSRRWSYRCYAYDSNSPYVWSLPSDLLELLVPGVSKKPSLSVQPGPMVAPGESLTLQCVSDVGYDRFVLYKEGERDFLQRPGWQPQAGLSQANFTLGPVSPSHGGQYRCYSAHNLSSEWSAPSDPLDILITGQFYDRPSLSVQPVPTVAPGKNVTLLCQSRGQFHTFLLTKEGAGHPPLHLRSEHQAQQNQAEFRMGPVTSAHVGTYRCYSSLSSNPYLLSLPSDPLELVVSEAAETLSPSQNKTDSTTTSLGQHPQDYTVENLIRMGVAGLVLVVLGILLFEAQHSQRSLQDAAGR
# Test: flow cytometry, HEK293-6E transfectants
# Method: as §1
MFI [MFI],binding result,Binder
28.9,no binding (tested: 1 µg/mL),B1
27.5,no binding (tested: 1 µg/mL),B2
25.8,no binding (tested: 1 µg/mL),B3
27.1,no binding (tested: 1 µg/mL),B4
27.6,no binding (tested: 1 µg/mL),B5

# Molecular target: T8, human LILRA4 on HEK293-6E cells (human, UniProt P59901 24-499)
# T8 construct: whole, on cells; also called hLILRA4
# T8 sequence (P59901 24-499): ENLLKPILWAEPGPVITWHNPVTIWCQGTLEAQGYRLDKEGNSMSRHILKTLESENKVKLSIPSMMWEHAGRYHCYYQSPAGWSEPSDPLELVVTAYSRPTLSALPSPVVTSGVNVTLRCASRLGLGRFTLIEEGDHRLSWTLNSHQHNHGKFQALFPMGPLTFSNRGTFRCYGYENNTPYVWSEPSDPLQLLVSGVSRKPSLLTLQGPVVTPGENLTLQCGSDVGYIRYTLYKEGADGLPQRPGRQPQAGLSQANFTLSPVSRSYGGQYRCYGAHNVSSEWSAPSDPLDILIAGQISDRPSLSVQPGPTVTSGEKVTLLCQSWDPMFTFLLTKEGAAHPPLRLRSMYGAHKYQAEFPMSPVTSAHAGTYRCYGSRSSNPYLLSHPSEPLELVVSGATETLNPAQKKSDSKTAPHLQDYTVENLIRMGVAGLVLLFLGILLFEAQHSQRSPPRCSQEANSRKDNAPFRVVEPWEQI
# Test: flow cytometry, HEK293-6E transfectants
# Method: as §1
MFI [MFI],binding result,Binder
136,no binding (tested: 1 µg/mL),B1
136,no binding (tested: 1 µg/mL),B2
130,no binding (tested: 1 µg/mL),B3
134,no binding (tested: 1 µg/mL),B4
132,no binding (tested: 1 µg/mL),B5

# Molecular target: T9, human LILRA5 on HEK293-6E cells (human, UniProt A6NI73 42-299)
# T9 construct: whole, on cells; also called hLILRA5
# T9 sequence (A6NI73 42-299): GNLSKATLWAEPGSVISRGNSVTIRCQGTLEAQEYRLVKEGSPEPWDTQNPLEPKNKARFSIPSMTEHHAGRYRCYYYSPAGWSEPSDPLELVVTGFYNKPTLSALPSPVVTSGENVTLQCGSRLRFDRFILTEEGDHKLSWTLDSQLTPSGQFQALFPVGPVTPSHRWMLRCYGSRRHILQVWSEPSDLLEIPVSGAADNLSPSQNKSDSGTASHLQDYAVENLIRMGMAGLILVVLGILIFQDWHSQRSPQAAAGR
# Test: flow cytometry, HEK293-6E transfectants
# Method: as §1
MFI [MFI],binding result,Binder
77.8,no binding (tested: 1 µg/mL),B1
75.3,no binding (tested: 1 µg/mL),B2
75.7,no binding (tested: 1 µg/mL),B3
74.6,no binding (tested: 1 µg/mL),B4
76.7,no binding (tested: 1 µg/mL),B5

# Molecular target: T10, human LILRA6 on HEK293-6E cells (human, UniProt Q6PI73 24-481)
# T10 construct: whole, on cells; also called hLILRA6
# T10 sequence (Q6PI73 24-481): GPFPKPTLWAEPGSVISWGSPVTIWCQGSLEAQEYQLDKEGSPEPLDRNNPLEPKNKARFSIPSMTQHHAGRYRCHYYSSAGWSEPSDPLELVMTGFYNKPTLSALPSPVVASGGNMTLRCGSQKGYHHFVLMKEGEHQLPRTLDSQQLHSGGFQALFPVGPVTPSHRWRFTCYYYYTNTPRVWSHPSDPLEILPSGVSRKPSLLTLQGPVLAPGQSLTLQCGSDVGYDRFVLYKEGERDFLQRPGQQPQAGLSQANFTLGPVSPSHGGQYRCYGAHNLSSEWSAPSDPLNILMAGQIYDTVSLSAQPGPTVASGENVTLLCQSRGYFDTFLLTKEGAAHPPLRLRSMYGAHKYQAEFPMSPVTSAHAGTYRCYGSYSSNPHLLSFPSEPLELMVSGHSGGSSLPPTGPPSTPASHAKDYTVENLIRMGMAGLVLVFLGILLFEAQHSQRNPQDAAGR
# Test: flow cytometry, HEK293-6E transfectants
# Method: as §1
MFI [MFI],binding result,Binder
147,no binding (tested: 1 µg/mL),B1
140,no binding (tested: 1 µg/mL),B2
142,no binding (tested: 1 µg/mL),B3
147,no binding (tested: 1 µg/mL),B4
140,no binding (tested: 1 µg/mL),B5

# Molecular target: T11, recombinant human LILRB1-His (human, UniProt Q8NHL6 24-458)
# T11 construct: Bought protein; also called LILRB1 protein
# T11 sequence (Q8NHL6 24-458 limits assumed): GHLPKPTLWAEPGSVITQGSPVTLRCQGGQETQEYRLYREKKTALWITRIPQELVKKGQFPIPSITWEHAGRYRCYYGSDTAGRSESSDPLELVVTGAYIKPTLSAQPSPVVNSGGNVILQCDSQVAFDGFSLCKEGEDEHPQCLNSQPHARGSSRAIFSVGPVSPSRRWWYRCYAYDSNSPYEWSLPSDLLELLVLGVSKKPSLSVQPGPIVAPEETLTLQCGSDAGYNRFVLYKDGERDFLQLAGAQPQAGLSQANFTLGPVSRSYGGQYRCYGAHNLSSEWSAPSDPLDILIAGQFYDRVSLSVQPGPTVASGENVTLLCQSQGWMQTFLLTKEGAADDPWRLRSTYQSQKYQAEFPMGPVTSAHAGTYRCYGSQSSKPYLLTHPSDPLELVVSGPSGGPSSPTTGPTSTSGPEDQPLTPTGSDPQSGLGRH
# Test: MSD ELISA, coated antigen, purified IgG1
# Method: (§2) Recombinant human and cynomolgus LILRB1 proteins (R&D Systems, No. 8989-T2-050; ACROBiosystems, No. CDJ-C52H3) and recombinant human and cynomolgus LILRB2 proteins (ACROBiosystems, No. LI2-H5220; No. L12-C52H3) were diluted in PBS to 4 μg/mL and added to a multi-array 384-well high-binding plates (MSD, No. L21XA4) at 10 μL/well and incubated at 4° C. overnight. The plates were washed several times with Wash Buffer (0.05% Tween® 20 in PBS), using a microplate washer and then blocked with 70 μL/well of 5% BSA in PBS for 1 hour (h) at room temperature (RT) with shaking at 700 rpm. After blocking, 20 μL/well of anti-LILRB2/LILRB1 antibodies or isotype control were added to the plates, and the plates were sealed and incubated for 2 h at RT with shaking at 700 rpm. After primary antibody binding, plates were washed five times with 70 μL/well of Wash Buffer (0.05% Tween® 20 in PBS) using a microplate washer. Secondary detection antibody (SULFO-TAG™-labeled goat anti-human IgG antibody (MSD, No. R32AJ-1)) was diluted to 4 μg/mL in assay diluent (1% BSA in PBS) and 10 μL/well was added to plates and incubated at RT protected from light for 1 h, with shaking at 700 rpm. Following incubation, plates were washed five times with Wash Buffer, using a microplate washer. After removal of the final wash, 35 μL/well of MSD Gold Read Buffer B (MSD, No. R60AM-4) was added to all wells using a Multidrop combo washer/dispenser, and plates were read using MESO Sector 600MM instrument (MSD) within 5 minutes (min) after addition of Read Buffer. Signals as counts per minute (cpm) were recorded. EC₅₀ values were calculated using GraphPad Prism based on log concentration of the primary antibodies versus cpm values.
row,EC50 [ng/mL],Binder
1,5.63,B1
2,8.64,B2
3,5.45,B3
4,9.19,B4
5,8.18,B5

# Molecular target: T12, recombinant human LILRB2-His (human, UniProt Q8N423 22-461, limits assumed)
# T12 construct: Bought protein; also called LILRB2 protein
# T12 sequence (Q8N423 22-461 limits assumed): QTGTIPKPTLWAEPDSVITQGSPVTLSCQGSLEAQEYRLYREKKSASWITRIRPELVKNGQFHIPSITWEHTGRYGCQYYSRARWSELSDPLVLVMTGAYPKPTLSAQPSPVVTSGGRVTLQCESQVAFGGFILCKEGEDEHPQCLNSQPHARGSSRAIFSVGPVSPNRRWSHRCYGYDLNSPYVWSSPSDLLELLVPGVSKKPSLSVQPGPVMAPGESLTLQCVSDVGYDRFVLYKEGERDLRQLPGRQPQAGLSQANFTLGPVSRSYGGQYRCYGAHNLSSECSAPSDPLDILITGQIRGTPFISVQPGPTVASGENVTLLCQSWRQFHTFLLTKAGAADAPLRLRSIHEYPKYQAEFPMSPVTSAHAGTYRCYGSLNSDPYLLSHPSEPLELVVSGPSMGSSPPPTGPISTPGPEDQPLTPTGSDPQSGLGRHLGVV
# Test: MSD ELISA, coated antigen, purified IgG1
# Method: as §2
row,EC50 [ng/mL],Binder
1,21.6,B1
2,30.7,B2
3,20.3,B3
4,28.4,B4
5,25.3,B5

# Molecular target: T2, human LILRB2 on cells
# Test: flow cytometry, LILRB2-HEK293T cells, AF647-labelled antibody
# Method: While LILRB2 expression is mostly restricted to myeloid cells, LILRB1 has a broader expression on immune cell subsets, including B cells, T cells and NK cells.
# Frozen cells were removed from storage in vapor phase liquid nitrogen and thawed by gentle swirling in a water bath at 37° C., then resuspended in DMEM media with 10% FBS. Cells were placed in a 15 mL conical tube and centrifuged at 300×g for 5 min, then supernatant was removed. Cells were resuspended in DMEM+10% FBS at a cell density of 2×10⁵ cells/mL in a T75 flask for culturing, and incubated at 37° C., 5% CO₂ for 3 days before passaging. Cells were passaged when the cell density reached 1×10⁶ cell/mL. On the day of the assay, cells were centrifuged, then supernatant was removed. Cells were resuspended in Blocking Buffer B (FACS Buffer containing 10% FBS and 0.5 mg/mL human IgG1 (Athens Research, No. 16-16-090707-1M)+0.05% NaN₃, 5% (w/v)) in a 15 mL conical tube, then incubated at 4° C. for 30 min. […] Cells were incubated with antibodies at 4° C. for 1 h. Cells were washed twice in FACS Buffer (PBS containing 2 mM EDTA+1% FBS+0.05% NaN₃) and then stained with for 10 min with Zombie Violet™ fixable viability dye (BioLegend, No. 423114) at RT, washed with FACS Buffer and resuspend in 75 μL of FACS Buffer for acquisition on a BD FACSymphony™ or BD FACSCanto™ II flow cytometer (BD Biosciences), as described in Example 6.
row,EC50 [ng/mL],Binder
1,0.96,B1
2,1.63,B2
3,2.23,B3
4,1.25,B4
5,1.07,B5
